How the values were obtained:
[1] = biological target: T1, MatP (Escherichia coli, UniProt P0A8N0 1-150); assay: fluorescence anisotropy; 300 mM KCl, 5 mM MgCl2; Kd in MatP dimer units; 1 dimer per DNA; 50 mM Tris-HCl, 300 mM KCl, 5 mM MgCl2, pH 7.5; temperature not stated; matS-Fl 10 nM in anisotropy titrations; settings: protein: recombinant; tags: untagged (N-terminal His6 removed by thrombin); chain copies: 2; label: 5'-fluorescein on sense strand
T1 sequence: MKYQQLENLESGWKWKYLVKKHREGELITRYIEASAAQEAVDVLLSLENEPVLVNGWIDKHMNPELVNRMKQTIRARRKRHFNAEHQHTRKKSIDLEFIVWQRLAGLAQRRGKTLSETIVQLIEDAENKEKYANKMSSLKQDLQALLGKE

[2] = biological target: the molecule itself; assay: AUC + other: light scattering; MatP alone in solution, working buffer (50 mM Tris-HCl, 300 mM KCl, 5 mM MgCl2, pH 7.5); details in the supplement to Fig. S7

B1: matS-Fl (matS19) (dsDNA)
DNA 1: AAAGTGACACTGTCACCTT
DNA 2: AAGGTGACAGTGTCACTTT
Kd [1]: 15 ± 2 nM

B2: MatP (natural protein, Escherichia coli, UniProt P0A8N0 1-150, looked up)
chain: MKYQQLENLESGWKWKYLVKKHREGELITRYIEASAAQEAVDVLLSLENEPVLVNGWIDKHMNPELVNRMKQTIRARRKRHFNAEHQHTRKKSIDLEFIVWQRLAGLAQRRGKTLSETIVQLIEDAENKEKYANKMSSLKQDLQALLGKE
notes: also called recombinant untagged MatP; not shown: His6, N-terminal, cleaved
stoichiometry N [2]: 2
